B1: Copper-transporting ATPase 2 (Homo sapiens), P35670 (parent)
chain: MPEQERQITAREGASRKILSKLSLPTRAWEPAMKKSFAFDNVGYEGGLDGLGPSSQVATSTVRILGMTCQSCVKSIEDRISNLKGIISMKVSLEQGSATVKYVPSVVCLQQVCHQIGDMGFEASIAEGKAASWPSRSLPAQEAVVKLRVEGMTCQSCVSSIEGKVRKLQGVVRVKVSLSNQEAVITYQPYLIQPEDLRDHVNDMGFEAAIKSKVAPLSLGPIDIERLQSTNPKRPLSSANQNFNNSETLGHQGSHVVTLQLRIDGMHCKSCVLNIEENIGQLLGVQSIQVSLENKTAQVKYDPSCTSPVALQRAIEALPPGNFKVSLPDGAEGSGTDHRSSSSHSPGSPPRNQVQGTCSTTLIAIAGMTCASCVHSIEGMISQLEGVQQISVSLAEGTATVLYNPSVISPEELRAAIEDMGFEASVVSESCSTNPLGNHSAGNSMVQTTDGTPTSVQEVAPHTGRLPANHAPDILAKSPQSTRAVAPQKCFLQIKGMTCASCVSNIERNLQKEAGVLSVLVALMAGKAEIKYDPEVIQPLEIAQFIQDLGFEAAVMEDYAGSDGNIELTITGMTCASCVHNIESKLTRTNGITYASVALATSKALVKFDPEIIGPRDIIKIIEEIGFHASLAQRNPNAHHLDHKMEIKQWKKSFLCSLVFGIPVMALMIYMLIPSNEPHQSMVLDHNIIPGLSILNLIFFILCTFVQLLGGWYFYVQAYKSLRHRSANMDVLIVLATSIAYVYSLVILVVAVAEKAERSPVTFFDTPPMLFVFIALGRWLEHLAKSKTSEALAKLMSLQATEATVVTLGEDNLIIREEQVPMELVQRGDIVKVVPGGKFPVDGKVLEGNTMADESLITGEAMPVTKKPGSTVIAGSINAHGSVLIKATHVGNDTTLAQIVKLVEEAQMSKAPIQQLADRFSGYFVPFIIIMSTLTLVVWIVIGFIDFGVVQRYFPNPNKHISQTEVIIRFAFQTSITVLCIACPCSLGLATPTAVMVGTGVAAQNGILIKGGKPLEMAHKIKTVMFDKTGTITHGVPRVMRVLLLGDVATLPLRKVLAVVGTAEASSEHPLGVAVTKYCKEELGTETLGYCTDFQAVPGCGIGCKVSNVEGILAHSERPLSAPASHLNEAGSLPAEKDAVPQTFSVLIGNREWLRRNGLTISSDVSDAMTDHEMKGQTAILVAIDGVLCGMIAIADAVKQEAALAVHTLQSMGVDVVLITGDNRKTARAIATQVGINKVFAEVLPSHKVAKVQELQNKGKKVAMVGDGVNDSPALAQADMGVAIGTGTDVAIEAADVVLIRNDLLDVVASIHLSKRTVRRIRINLVLALIYNLVGIPIAAGVFMPIGIVLQPWMGSAAMAASSVSVVLSSLQLKCYKKPDLERYEAQAHGHMKPLTASQVSVHIGMDDRWRDSPRATPWDQVSYVSQVSLSSLTSDKPSRHSAAADDDGDKWSLLLNGRDEEQYI

Variants of: B1
Conditions: with comd1_human COMMD1, Q8N668
comd1_human COMMD1, Q8N668, sequence (Q8N668 whole entry): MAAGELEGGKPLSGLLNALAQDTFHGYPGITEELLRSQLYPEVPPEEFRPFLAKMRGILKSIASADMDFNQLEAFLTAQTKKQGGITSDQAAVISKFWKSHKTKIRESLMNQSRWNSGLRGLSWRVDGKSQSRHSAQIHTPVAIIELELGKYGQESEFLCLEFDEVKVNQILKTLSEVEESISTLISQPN

Variant	effect of a mutation on the interaction
E541K	increasing interaction strength
N41S	increasing interaction strength
G626A	decreasing interaction strength
Y532H	increasing interaction strength
L641S	with no effect
A604P	decreasing interaction strength
R616W	increasing interaction strength
R616Q	increasing interaction strength
G284V	increasing interaction strength
L492S	with no effect
G170V	increasing interaction strength
D642H	decreasing interaction strength
A486S	increasing interaction strength
G591D	increasing interaction strength
G515V	increasing interaction strength
M645R	decreasing interaction strength
G386V	increasing interaction strength
G85V	increasing interaction strength

From IntAct's records for PubMed 17919502
